# Assay: soluble on expression in E. coli; label from the status in PepcDB or PDB records
row,Sequence,soluble on expression in E. coli
1,MGSDKIHHHHHHMCQGLMTHSRCVKSNTMFSIRIKAGRKAYEQIRDGGFSCDRISAFFAPAAGPRWLVATGFDLTLLKAGLLGRKKPVQLIGSSSGAWRFAAWVQPEAEKSYLNLMEAYIRIPYHKDDRAGIVLQNLINVVNSYIEDDALPFALAHKHYRLAVLTARVRHLVASESSWIQSSGLFLCFLMNALSRSTLDHFTERVVFYNGPNPPGFCLKSPFRGRFIQLNRTNFKHAILASGAIPLFVAGIRDIYGAPRGVYRDGGLVDYHQTYDFAESDDDMTLFFHHQERIIPGWFDKRLKHRRTPDVLLDHTLMVFPTEDFVSTLPLGKLPDREDFRSFMDDPATRIRNWQEAVRRSAPLGEQFFELVESGKLRSMVERI,not soluble
2,GPGSYLMLLGLNLIRLLVCSRIAEFHSEMEKIPFATHGSNLYIRFAVGLERYLMEGSYNKLLTSRKKVPSNEYLPVVEMLEQTVRDEVANCIPESYRQLSIPAAQRILMVDTEAKVREIGAKREWALSADGTHFVFTREDDTLQKEIPFKEMIEQHINFVADLQNIV,not soluble
3,SSVDPMTYEAQFFGFTPQTCMLRIYIAFQDYLFEVMQAVEQVILKKLDGIPDCDISPVQIRKCTEKFLCFMKGHFDNLFSKMEQLFLQLILRIPSNILLPEDKCKETPYSEEDFQHLQKEIEQLQEKYKTELCTKQALLAELEEQKIVQAKLKQTLTFFDELHNVGRDHGTSDFRESLVSLVQNSRKLQNIRDNVEKESKRLKIS,soluble
4,KLDKAYLNNDADKITYMPTWRPWEESEIINGNIKKTTYYKSILDVIKAFEKENMLNRLQIAAHNKFSQYMKNNFDKYQNIFIEDPTDTLTNSIIYITDISSIILDAAYRGAYPIFYWKEFDYIIEKHGGTSPVNPENAPGDVVYSEQDLVNIVKYIIRNDYKIPSRIKENYKKLNEFNDNQNTQRVVDILIEDNII,not soluble
5,MGSDKIHHHHHHMDPRHRRGARLRHHQRDVARGGSVPARRQAHRRVARGLGEPVFVTHLVFFCGHAGTGKTTLAKRLIGPLMRATGEAFCLLDKDTLYGRYSSAAMGALTSDPNDRDSPLYLKHLRDPEYQGLLDTARENLALGIGALVVGPLSREVRDRRILDRAWLGIGPEIALTVVWVHTAEDVAHQRIVARGNPNDAYKLAHWDEYRQRRFVPTGHECDGIVMFDNTAPSDADIDALLYRIVPPAPQATMVPPLPA,not soluble
6,MSKDAKSPKKLRSNRAALTHKVGYALRHPERVGPYVRRAGRDAWLRVKHPDHVGYYRAVMASDARRSPEAAVGSRTHDRWLALGQMQFDYLVEHGLRPGHRMLDIGCGNLRGGWRFIDHLDSGHYYGVDISPDILIAAKKTLTERGLQAKLPHLTITGDLRLEFLPDDHFDVVHAHSVFSHSPLNVIDECLAHVGRVLTDTGFFDFTFDRTEGTEHQVLREDFYYRTDTLLTLAAQHNLHARFMEDWEKRPHGQSKIRVSRSPLPSLEHHHHHH,not soluble
7,MFPWIVIHEGNLFDTQKPLKCAILSEFQSMVSESDGPSSSKTGGISSSMTHPLDMLGDTYGIFDLMMDTSSIKPILTEILCSSDHWRRNGRHPVVLSTFPFSAIAREINASCSEALFYEIANVERMIVGDSRHAMNLGDQLAFEIFSTVMMISDLDIFLLGASNLYLSDRRGFNRDLTDVFWSSFISSLLMRNDRNRLFILIKGGLKYVSDLLSEYIVARISMELSDQTIRIRLIYL,soluble
8,MRDEEPVRRLETIVEEERRVVVQGYVFDAEVSELKSGRTLLTMKITDYTNSILVKMFSRDKEDAELMSGVKKGMWVKVRGSVQNDTFVRDLVIIANDLNEIAANERQDTAPEGEKRVELHLHTPMSQMDAVTSVTKLIEQAKKWGHPAIAVTDHAVVQSFPEAYSAAKKHGMKVIYGLEANIVDDGVPIAYNETHRRLGSGSGPFHVTLLAQNETGLKNLFKLVSLSHIQYFHRVPRIPRSVLVKHRDGLLVGSGCDKGELFDNLIQKAPEEVEDIARFYDFLEVHPPDVYKPLIEMDYVKDEEMIKNIIRSIVALGEKLDIPVVATGNVHYLNPEDKIYRKILIHSQGGANPLNRHELPDVYFRTTNEMLDCFSFLGPEKAKEIVVDNTQKIASLIGDVKPIKDELYTPRIEGADEEIREMSYRRAKEIYGDPLPKLVEERLEKELKSIIGHGFAVIYLISHKLVKKSLDDGYLVGSRGSVGSSFVATMTEITEVNPLPPHYVCPNCKHSEFFNDGSVGSGFDLPDKNCPRCGTKYKKDGHDIPFETFLGFKGDKVPDIDLNFSGEYQPRAHNYTKVLFGEDNVYRAGTIGTVADKTAYGFVKAYASDHNLELRGAEIDRLAAGCTGVKRTTGQHPGGIIVVPDYMEIYDFTPIQYPADDTSSEWRTTHFDFHSIHDNLLKLDILGHDDPTVIRMLQDLSGIDPKTIPTDDPDVMGIFSSTEPLGVTPEQIMCNVGTIGIPEFGTRFVRQMLEETRPKTFSELVQISGLSHGTDVWLGNAQELIQNGTCTLSEVIGCRDDIMVYLIYRGLEPSLAFKIMESVRKGKGLTPEFEAEMRKHDVPEWYIDSCKKIKYMFPKAHAAAYVLMAVRIAYFKVHHPLLYYASYFTVRAEDFDLDAMIKGSAAIRKRIEEINAKGIQATAKEKSLLTVLEVALEMCERGFSFKNIDLYRSQATEFVIDGNSLIPPFNAIPGLGTNVAQAIVRAREEGEFLSKEDLQQRGKLSKTLLEYLESRGCLDSLPDHNQLSLFSGGHHHHHHHH,soluble
9,MESKIPAIEKHRDAYVKIRIIESLDELALGLKLLKEGFSRNSANKVFQSWKAIISALTVINLEKMPRNEKEKEWYYKSGFLAPTTGLKGISQRLEELGYKVNSLTSVALELHRYAYNGLYKGASDYYEREEAINDIIYLSKEIMKVIKEFFKEYWDEEIEEHYNLAEKELMKLEHHHHHH,not soluble
10,MGEYERTVFTRRITGVETEYGITCVGDNSRRRLGADEAARYMFRPVVEEWGSSNVFIPNGARLYLDVGSHPEYASAECDSLSQLIAYDRAGDKIVDQLAQRAETALATEGIGGRVYLFKNNLDSLGNSYGCHENYLVSRDVVLKTLGRQLLPFLITRQLICGAGSIQDGQFQVSQRADHVWEGVSSATTRSRPIINTRDEPHADSHRFRRLHVIVGDSNMSETTCALKIGSTQLVLEMIEAGALSHDLELSNEIAAIREISRDITGMAPVPLKAGTSMPAIEIQRRYAEKALCWLEQRGDTEGTPNAEMHKVVSLWLDTISAIESNDLQALSRDIDWAIKLSLLRRAQRRIGCSESDFTHPKLAQLDLAYHDIRAGRGVFPVLESKQLVNRWINDTDIEQATRIAPSTTRAALRGEFLTAAKKLQAPISADWLRLKVNRPEPQIIELTDPFENTDDRVDQLISYMRNHAASYSTDTAIS,not soluble
11,MKNFHPTGNCPVRDVISRLGDKWSMLVLITLNANGTMRFSDIHKTIEDISQRMLTVTLRTLESDGLIERKIYAEVPPRVEYYLTDTGGTLIPHIEGLVGWALENMDTILEHRKSN,not soluble
12,MGSDKIHHHHHHMKRVVITGMGIVSPFGVGKERNLEGLRETKVTIDRISSFDASNLPVQIAAEVRDFKPEEYINPKLVRRTDRFVHFALVSAKEAVEDAGINFEPYADRTATIIGSGMGGFLTLDSENNKFLSQGPSRVSPFLIPMILIDMASGVVAMEYGLKGPNFSSVSACASSLHAVALGALLIRHGYADVAVVGGTEATIAPLPITGFANMRALSRRNDDPKRASRPFDKDRDGFVMGEGGAVLILEAEEVAKSRGAKILAEIKGVGMTDDAYHFSAPDPEGRGAAEAMKLALKESSLAVEDIDYVSCHATSTPAGDEAELKAIKKVLGEHVKNVAINSSKALIGHLLGAAGASELVLAILQMQNSFVHGMPNLDNPIDEAKGTGLVGKEPVQMEIKNFIKNSFGFGGHNVSIVVGRYES,not soluble

# Reference: the DeepSol protein solubility set
